{"source": "patent US20180064827", "test_in_all_cases": "cell_activity", "key": {"ZFN 63195 (synthetic)": {"test_system": "ZFN 63195 (synthetic)", "conditions": "pair with 63194, Hepa1-6, 40 ug/mL"}, "ZFN 63410 (synthetic)": {"test_system": "ZFN 63410 (synthetic)", "conditions": "pair with 63411, Hepa1-6, 40 ug/mL"}, "ZFN 63236 (synthetic)": {"test_system": "ZFN 63236 (synthetic)", "conditions": "pair with 63238, Hepa1-6, 40 ug/mL"}, "ZFN 63341 (synthetic)": {"test_system": "ZFN 63341 (synthetic)", "conditions": "pair with 63342, Hepa1-6, 40 ug/mL"}, "ZFN 63375 (synthetic)": {"test_system": "ZFN 63375 (synthetic)", "conditions": "pair with 63374, Hepa1-6, 40 ug/mL"}, "ZFN 63342 (synthetic)": {"test_system": "ZFN 63342 (synthetic)", "conditions": "pair with 63341, Hepa1-6, 40 ug/mL"}, "ZFN 63194 (synthetic)": {"test_system": "ZFN 63194 (synthetic)", "conditions": "pair with 63195, Hepa1-6, 40 ug/mL"}, "ZFN 63374 (synthetic)": {"test_system": "ZFN 63374 (synthetic)", "conditions": "pair with 63375, Hepa1-6, 40 ug/mL"}, "ZFN 63411 (synthetic)": {"test_system": "ZFN 63411 (synthetic)", "conditions": "pair with 63410, Hepa1-6, 40 ug/mL"}, "ZFN 60287 (synthetic)": {"test_system": "ZFN 60287 (synthetic)", "conditions": "pair with 60289, K562"}, "ZFN 63238 (synthetic)": {"test_system": "ZFN 63238 (synthetic)", "conditions": "pair with 63236, Hepa1-6, 40 ug/mL"}}}
{"sequence": "TTGTCGGTCTTAGAGATATTAAAGTTGG (double strand) [mouse KLKB1 63195 site]", "values": [{"measurement": "activity", "setting": "ZFN 63195 (synthetic)", "value": 89.8, "unit": "% indel"}]}
{"sequence": "TCTTTAGGGGAGTGGCCATGGCAGGTCA (double strand) [mouse KLKB1 63410 site]", "values": [{"measurement": "activity", "setting": "ZFN 63410 (synthetic)", "value": 84.7, "unit": "% indel"}]}
{"sequence": "CCGCTGAGTTCACAGGTTGCCCCATGGA (double strand) [mouse KLKB1 63236 site]", "values": [{"measurement": "activity", "setting": "ZFN 63236 (synthetic)", "value": 92.5, "unit": "% indel"}]}
{"sequence": "TTGACTTTGAAGGGGAAGAACTGAATGT (double strand) [mouse KLKB1 63341 site]", "values": [{"measurement": "activity", "setting": "ZFN 63341 (synthetic)", "value": 96.8, "unit": "% indel"}]}
{"sequence": "TGCATGCCATAGGTGATCCTAGTTGGGG (double strand) [mouse KLKB1 63375 site]", "values": [{"measurement": "activity", "setting": "ZFN 63375 (synthetic)", "value": 93.7, "unit": "% indel"}]}
{"sequence": "CTGCTCCTTGCACGAAGGTCACATTCAG (double strand) [mouse KLKB1 63342 site]", "values": [{"measurement": "activity", "setting": "ZFN 63342 (synthetic)", "value": 96.8, "unit": "% indel"}]}
{"sequence": "AAGGACTTGATATGAGAGGGTCCAACTT (double strand) [mouse KLKB1 63194 site]", "values": [{"measurement": "activity", "setting": "ZFN 63194 (synthetic)", "value": 89.8, "unit": "% indel"}]}
{"sequence": "GGGAGCCATCTGTGGATAACCTTAAGGA (double strand) [mouse KLKB1 63374 site]", "values": [{"measurement": "activity", "setting": "ZFN 63374 (synthetic)", "value": 93.7, "unit": "% indel"}]}
{"sequence": "TTCACTTGCAGGCTGACCTGCCATGGCC (double strand) [mouse KLKB1 63411 site]", "values": [{"measurement": "activity", "setting": "ZFN 63411 (synthetic)", "value": 84.7, "unit": "% indel"}]}
{"sequence": "CGGAGCTCACCCTGGCCGAGTTGAGGCA (double strand) [human PCSK9 60287 site]", "values": [{"measurement": "activity", "setting": "ZFN 60287 (synthetic)", "value": 73.1, "unit": "% indel"}]}
{"sequence": "GCAGAGTGCTGGAAAATATCCATGGGGC (double strand) [mouse KLKB1 63238 site]", "values": [{"measurement": "activity", "setting": "ZFN 63238 (synthetic)", "value": 92.5, "unit": "% indel"}]}
